# Experimental data reported in doi:10.1101/2022.07.11.499521.
# Biological target: Vairimorpha necatrix 20S proteasome core particle (Vairimorpha necatrix (endogenous in spores))
# Assay: cryo-EM structure
substance,measurement,value
Vairimorpha necatrix 19S regulatory particle (complex),percent of proteasome particles capped by RP,12%
